This test deals with three-helix bundle composed of syntaxin-1A and SNAP-25 (rat) (UniProt P32851). The experiment in a line: magnetic tweezers; single pre-assembled SNARE complex held between a PEG-biotin glass surface (NeutrAvidin) and an anti-digoxigenin magnetic bead by two 510-bp DNA handles; force ramps at 1 pN/s, force jumps and 1.2-kHz tracking at 10-16 pN; PBS pH 7.4 with 2.5 uM free SNAP-25; no Cpx.

Regarding “rat synaptobrevin-2 (2–97, L32C/I97C) (from UniProt P63045 2-97) (domain or fragment)”, the average unzipping force (without Cpx) was found to be 14.4 pN.

The record behind these values is publication PMC6128827.
